Assay results: patent US7615380B2, “Methods for modulating an immune response by modulating KRC activity” (President and Fellows of Harvard College, priority 2001, dated 2009)
Where two headings read alike, the source gives them in different places.

How the values were obtained:
AP-1 = AP-1 luciferase reporter in Jurkat cells, KRC-enhanced transactivation after PMA plus ionomycin; assay type: cell-based, human; conditions: pretreated with Rottlerin (10 μM), PMA plus ionomycin 6 hours
Protocol: FIG. 20(A) Jurkat cells were transiently transfected with AP-1 Luciferase reporter along with KRC and RasN17 DN vectors. 24 hours later cells were pretreated with Rottlerin (10 μM) and stimulated for 6 hours with PMA plus ionomycin. Luciferase activity was measured as above. FIG. 20(B) Jurkat cells were transfected with a GAL4 Luciferase reporter along with a GAL4 DNA binding domain, GAL4-ATF2, or GAL4-ELK1 with or without KRC. 24 hours later, cells were stimulated with PMA plus ionomycin and analyzed for Luciferase activity as above. FIG. 20(C) Jurkat cells were transiently transfected with FLAG-JNK2, and either Vector, KRC, or MKK7. 48 hours later, cells were stimulated with PMA plus ionomycin for 6 hours and JNK activity was determined by immunoprecipitation/kinase assay. Equal amounts of FLAG-Jnk2 protein were immunoprecipitated, as judged by anti-FLAG western blot (lower panel).
For each transfection, 5×10^6 Jurkat cells were incubated with either IL2-Luc, NFAT/AP1-Luc or AP1-Luc reporter DNA together with pEF vector or pEF-KRC and CMV-βGAL as normalization control in 0.4 ml of RPMI and transfected by electroporation (260 v, 975 uF). Transfected cells were cultured at 37° C. for 20 h in RPMI 1640 medium (Gibco BRL) supplemented with 10% fetal bovine serum. Transfected cells were stimulated with PMA (50 ng/ml) and ionomycin (2 uM) for 6 hours prior to luciferase (Promega) and β-galactosidase assays (Galacton-PLUS substrate system, TROPIX, Inc).

NFκB = NFκB luciferase reporter transfection assay in 293T cells; assay type: cell-based, human
Protocol: FIGS. 2(A)-2(C) depicts KRC preventing TRAF-dependent NFkB activation. Inhibition of TRAF2 (FIG. 2(A)), TRAF5 (FIG. 2(B)) and TRAF6 (FIG. 2(C)) mediated activation of NFkB by ectopically expressed KRC. 293 T cells (3×10^5 ) were transfected with 25 ng of NFkB luciferase reporter plasmid, 50 ng of CMVβGal and 1 μg of each indicated plasmid and 24 hours post transfection cells were harvested. Data from at least five experiments normalized for β galactosidase activity are shown. Vec refers to the empty MYC vector without the addition of TRAFs.
293 T cells (3×10^5 ) were transfected with 25 ng of NFκB luciferase reporter plasmid, 50 ng of CMVβGal and 1 μg of each indicated plasmid and 24 hours post transfection cells were stimulated for 4 hours with 10 ng/ml of TNFα. (A) KRC and KRC tr (B) dominant negative and antisense KRC (C) antisense KRC in the presence of exogenous TRAF2. Data from at least five experiments normalized for β galactosidase activity are shown.
HEK293 cells ([…] per well) were seeded in 6 well plates, and 12 h later cells were transfected with EFECTENE™ (Qiagen) with 25 ng of a 2XNFκB-luciferase (Luc) reporter gene plasmid and 0.5 μg of the indicated TRAF and KRC expression vectors. Total amounts of transfected DNA were kept constant by supplementing with control empty expression vector plasmids as needed. Cell extracts were prepared 24 h after transfection, and reporter gene activity was determined via the luciferase assay system (PROMEGA). PRSV-βGal vector (50 ng) was used to normalize for transfection efficiency by measuring β galactosidase activity using the Galacton-PLUS substrate system (TROPIX, Inc.). Whenever indicated, the cells were treated for 4 hours with TNFα or IL-1 (10 ng/ml). To generate stable transfectants, EFECTENE™ mediated transfection of the RAW cell line was performed and clones were selected and maintained in complete medium supplemented with G418 (2 mg/ml).

NIH 3T3 cells = experiment: β-galactosidase cotransfection apoptosis assay in 3T3 cells; assay type: cell-based; conditions: TNFα 20 ng/ml
Protocol: 3T3 cells were cotransfected with CMV lacZ vector (300 ng per plate) and either empty expression vector or the expression vectors indicated (2 μg of each). Half of the transfected cultured cells were treated with TNFα (20 ng/ml) at 12 hours after the transfection and the other half left untreated. All the cells were fixed and stained at 36 hours after the transfection. The number of blue cells in each transfection was determined by counting six different fields. A representative experiment of three performed is presented.
β-galactosidase cotransfection assays for determination of cell death were performed as described (Hsu, et al.). Transfected NIH 3T3 cells were washed with PBS, fixed in PBS containing 3% paraformaldehyde for 10 min at 4° C., and washed with PBS. Fixed cells were stained overnight with XGal. The number of blue-stained cells was determined microscopically. The average number from one representative experiment of three is shown.

JNK = JNK in vitro kinase assay after transfection of 293 cells; assay type: cell-based, human; conditions: 293 cells cotransfected with TRAF2, 24 hours
Protocol: Inhibition of TRAF2 (A) and TNFα (B, C) mediated JNK/SAPK activation by ectopic expression of KRC. (A) 293 T cells were transfected with 400 ng of TRAF2 and 2 μg of the indicated expression vector. Twenty-four hours after the transfection, the cells were harvested and lysed, and the endogenous JNK was precipitated with 5 μg of GST-cJUN (1-79) for 4 hours. JNK activity was determined by using GST-cJUN (1-79) as a substrate. (B,C) 293 T cells were cotransfected with vectors encoding HA-tagged JNK2 (500ng) and the indicated expression vector (2 μg). Twenty-four hours after the transfection cells were stimulated for 10 min with 10 ng/ml of TNFα and cells harvested at varying time points. JNK activity was assayed with GST-cJUN (1-79) as substrate.
Anti-HA or anti-FLAG immunoprecipitates were used for immune complex kinase assays that were performed at 30° C. for 30 min with 1 μg of substrate, 10 μCi of γ^32 P ATP, and 10 μM ATP in 30 μl of kinase buffer (20 mM HEPES, pH 7.4, 10 mM MgCl2, 25 mM β-glycerophosphate, 50 μm NA3VO4, and 50 μm DTT). The substrate was GST-c-JUN.

c-Jun = biological target: T1, c-Jun (Homo sapiens, UniProt P05412); experiment: Coimmunoprecipitation / in vitro pull down with c-Jun; assay type: binding
T1 construct: expressed in transfected cells; host or cells: 293T cells (co-IP); in vitro translated, 35S-labelled c-Jun in the pull-down
Protocol: FIG. 21(A) 293T cells were transfected with c-Jun and myc-KRCtr. 48 hours later, lysates were immunoprecipitated with anti-Myc antibody. Immunoprecipitates were probed by western blotting with anti-c-Jun antibody. FIG. 21(B) (left panel) 293T cells were cotransfected with c-Jun and full length His-KRC. 48 hours later, lysates were immunoprecipitated with anti-His antibody (DE8 Omniprobe) and precipitates were probed by western blotting with anti-c-Jun antibody. (right panel) In vitro translated and S35-labelled c-Jun and His-KRCtr were mixed and immunoprecipitated with anti-His antibody. Recovered c-Jun protein was visualized by autoradiography. FIG. 21(C) Jurkat or EL4 T cells were stimulated with PMA plus ionomycin for 45 minutes. Lysates were immunoprecipitated with anti-c-Jun antibody, and immunoprecipitates were probed with specific anti-KRC rabbit antisera. FIG. 21(D) (upper panel) 293T cells were transfected with AP-1 Luciferase along with c-Jun, c-Fos, and KRC. 24 hours later, Luciferase activity was determined as above. (lower panel) 293T cells were transfected with GAL4 Luciferase along with GAL4, GAL4-c-Jun 1-224, or GAL4-c-Fos 208-313. 24 hours later, luciferase activity was determined as above. […]

T1 sequence (P05412 whole entry): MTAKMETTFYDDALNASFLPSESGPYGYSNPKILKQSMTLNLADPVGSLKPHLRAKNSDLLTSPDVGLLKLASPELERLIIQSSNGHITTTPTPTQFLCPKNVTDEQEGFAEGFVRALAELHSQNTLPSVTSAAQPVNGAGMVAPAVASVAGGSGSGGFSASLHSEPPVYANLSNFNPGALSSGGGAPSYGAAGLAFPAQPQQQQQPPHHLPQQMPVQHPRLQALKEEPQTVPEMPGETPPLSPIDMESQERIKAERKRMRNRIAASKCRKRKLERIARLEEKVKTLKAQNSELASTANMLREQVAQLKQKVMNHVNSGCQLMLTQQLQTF

Row | Molecule | KRC transactivation of the AP-1 reporter (AP-1) | KRC transactivation of the AP-1 reporter (AP-1; listed as rottlerin) | NFκB activation induced by TRAF5 and TRAF6 (NFκB; 293T cells) | NFkB-dependent transactivation (NFκB; 293T cells, absence of exogenous TRAFs) | TRAF2-induced NFκB activation (NFκB; 293T cells, exogenous TRAF2) | TNFα-induced NFκB activation (NFκB; 293 cells, 10 ng/ml TNFα 4 hours) | TNFα-induced apoptosis (TNF mediated cytotoxicity) (NIH 3T3 cells) | TRAF2-dependent JNK activation (JNK) | physical association with c-Jun (c-Jun) | physical association with c-Jun (c-Jun; listed as KRCtr)
1 | RasN17: dominant negative Ras | abolished the ability of KRC to enhance AP-1 transactivation |  |  |  |  |  |  |  |  | 
2 | CC(=O)c1c(O)c(C)c(O)c(Cc2c(O)c3c(c(C(=O)/C=C/c4ccccc4)c2O)OC(C)(C)C=C3)c1O [Rottlerin] | blocked | abolished the ability of KRC to enhance AP-1 transactivation |  |  |  |  |  |  |  | 
3 | KRC tr: truncated KRC, amino acid residues 204 to 1055 of SEQ ID NO:2 (protein, listed as Homo sapiens) PSVLQKHIRSHTGERPYPCGPCGFSFKTKSNLYKHRKSHAHRIKAGLASGMGGEMYPHGLEMERIPGEEFEEPTEGESTDSEEETSATSGHPAELSPRPKQPLLSSGLYSSGSHSSSHERCSLSQSSTAQSLEDPPPFVEPSSEHPLSHKPEDTHTIKQKLALRLSERKKVIDEQAFLSPGSKGSTESGYFSRSESAEQQVSPPNTNAKSYAEIIFGKCGRIGQRTAMLTATSTQPLLPLSTEDKPSLVPLSVPRTQVIEHITKLITINEAVVDTSEIDSVKPRRSSLSRRSSMESPKSSLYREPLSSHSEKTKPEQSLLSLQHPPSTAPPVPLLRSHSMPSAACTISTPHHPFRGSYSFDDHITDSEALSRSSHVFTSHPRMLKPQPAIELPLGGEYSSEEPGPSSKDTASKPSDEVEPKESELTKKTKKGLKTKGVIYECNICGARYKKRDNYEAHKKYYCSELQIAKPISAGTHTSPEAEKSQIEHEPWSQMMHYKLGTTLELTPLRKRRKEKSLGDEEEPPAFESTKSQFGSPGPSDAARNLPLESTKSPAEPSKSVPSLEGPTGFQPRTPKPGSGSESGKERRTTSKEISVIQHTSSFEKSDSLEQPSGLEGEDKPLAQFPSPPPAPHGRSAHSLQPKLVRQPNIQVPEILVTEEPDRPDTEPEPPPKEPEKTEEFQWPQRSQTLAQLPAEKAPPKKKRLRLAEMAQSSGESSFESSVPLSRSPSQESNVSLSGSSRSASFERDDHGKAEAPDPSSDMRPKPLGTHMLTVPSHHPHAREMRRSASEQSPNVSHSAHMTETRSKSFDYGSLSLTGPSAPAPVAPPAGEAPPERRKCFLVRSPSLSRPP |  |  | substantially but not completely affected | blocked NFkB-dependent transactivation | blocked TRAF2-induced NFκB activation | strongly inhibited TNFα-induced NFκB activation | The same effect was observed | blocked TRAF2-dependent JNK activation | physically associated with c-Jun | interacted with c-Jun
